Assay results as given in patent US20210188980A1 (SHANGHAI EPIMAB BIOTHERAPEUTICS, published 2021).

Legend:
[1] = target: T1, human PD-1-His protein (human, UniProt Q15116 25-167, limits assumed); assay: SPR Biacore
T1 construct: also called huPD-1; not shown: His tag

[2] = target: T2, human PD-1 expressed on cells (human, UniProt Q15116 25-288); assay: cell RBA FACS; competitor PD-L2/Fc
T2 construct: whole, on cells; also called CHO-K1/huPD-1; CHO-K1-hPD-1 cells

[3] = target: T2, human PD-1 expressed on cells; assay: cell RBA FACS; competitor PD-L1/Fc
[4] = target: T1, human PD-1-His protein; assay: SPR Biacore, Ab captured, huPD-1-His analyte
Procedure: (§1) All 15 humanized antibodies and the chimeric antibody (mAb709c) were characterized by binding ELISA and cell-based RBA. For cell-based RBA, 2×10⁵ cells/well of CHO-K1-huPD1 cells were added to a pre-blocked 96-well round-bottomed plate and after washing, 50 μl antibodies with diluted concentration ranging from 0.064 nM to 200 nM were added to each well. Next, 50 μl of 60 μg/ml biotinylated PD-L1/Fc or biotinylated PD-L2/Fc protein were added. After gentle mixing and incubation at 4° C., the cells were washed and stained by Alexa Fluor™ 488 streptavidin solution (1:1000, ThermoFisher Scientific; Cat. No. S32354). Signals were readout by FACS and curves were fitted by GraphPad software. […] The association and dissociation rate constants, k (M⁻¹ s⁻¹) and koff(s⁻¹), respectively, were determined by making kinetic binding measurements at five different concentrations of human PD-1-His protein at a continuous flow rate of 30 μl/min. The equilibrium dissociation constant KD (M) of the reaction between antibodies and related target proteins was calculated from the kinetic rate constants using the formula KD=koff/kₒₙ. HumAb709-8 had minimal back-mutation(s) while maintaining to the greatest extent the affinity of the parental variable domains on chimeric mAb709c.

[5] = target: T2, human PD-1 expressed on cells; assay: cell RBA FACS, CHO-K1-huPD1; competitor biotin-PD-L1/Fc
Procedure: as §1

[6] = target: T2, human PD-1 expressed on cells; assay: cell RBA FACS, CHO-K1-huPD1; competitor biotin-PD-L2/Fc
Procedure: as §1

T1 sequence (Q15116 25-167 limits assumed): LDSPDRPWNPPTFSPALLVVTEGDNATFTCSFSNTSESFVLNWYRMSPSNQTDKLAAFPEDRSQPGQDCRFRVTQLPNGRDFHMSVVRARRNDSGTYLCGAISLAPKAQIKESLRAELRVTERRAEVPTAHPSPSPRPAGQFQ
T2 sequence (Q15116 25-288): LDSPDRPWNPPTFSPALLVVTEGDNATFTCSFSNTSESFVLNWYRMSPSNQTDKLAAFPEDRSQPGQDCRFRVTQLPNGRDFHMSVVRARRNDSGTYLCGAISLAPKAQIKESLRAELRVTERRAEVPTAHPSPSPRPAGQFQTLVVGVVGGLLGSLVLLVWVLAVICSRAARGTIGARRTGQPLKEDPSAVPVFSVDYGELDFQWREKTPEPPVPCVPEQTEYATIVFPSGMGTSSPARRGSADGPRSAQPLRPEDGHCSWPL

Row | Binder | Kd [1] [nM] | koff [1] [s⁻¹] | kon [1] [M⁻¹ s⁻¹] | IC50 [2] [nM] | IC50 [3] [nM] | Kd [4] [nM] | koff [4] [s⁻¹] | kon [4] [M⁻¹ s⁻¹] | IC50 [5] [nM] | IC50 [6] [nM]
1 | HumAb713-3 (antibody, human IgG1, kappa, L234A L235A, V domains shown, humanized mAb713; also called HurnAb713-3) VH: EVQLVESGGGLVQPGGSLRLSCAASGFTSSDYGMHWVRQAPGKGLEWVSYISSGSYTIYYADTVKGRFTISRDNAKNSLYLQMNSLRDEDTAVYYCAKRGGSSHVNVMDYWGQGTTVTVSS VL: DIQMTQSPSSLSASVGDRVTITCKASDHINNWLAWYQQKPGKAPKLLIYGATSLETGVPSRFSGSGSGTDFTFTISSLQPEDIATYYCQQYWSPPYTFGGGTKVEIKR | 2.46 | 0.000208 | 84500 | 1.24 | 0.77 | – | – | – | – | –
2 | HumAb713-1 (antibody, human IgG1, kappa, L234A L235A, V domains shown, humanized mAb713) VH: EVQLVESGGGLVQPGGSLRLSCAASGFTFSDYGMHWVRQAPGKGLEWVSYISSGSYTIYYADTVKGRFTISRDNAKNSLYLQMNSLRDEDTAVYYCARRGGSSHVNVMDYWGQGTTVTVSS VL: DIQMTQSPSSLSASVGDRVTITCKASDHINNWLAWYQQKPGKAPKLLIYGATSLETGVPSRFSGSGSGTDFTFTISSLQPEDIATYYCQQYWSPPYTFGGGTKVEIKR | 11.1 | 0.001 | 90100 | 1.2 | 0.5 | – | – | – | – | –
3 | HumAb709-7 (antibody, human IgG1, kappa, L234A L235A, V domains shown, humanized mAb709) VH: EVQLVESGGGLVQPGGSLRLSCAASGFTFSFYTMSWVRQAPGKGLEWVATISGGGRDTYYPDSVKGRFTISRDNAKNSLYLQMNSLRAEDTAVYYCARQGGNYLFAYWGQGTLVTVSS VL: DIVMTQSPSSLSASVGDRVTITCKASQDVNTVVAWYQQKPGKAPKVLISWASTRHTGVPSRFSGSGSGTDYTLTISSLQPEDFATYYCQQHYTTPYTFGGGTKVEIKR | – | – | – | – | – | 2.36 | 0.000336 | 141000 | 0.4 | 0.84
4 | HumAb709-2 (antibody, human IgG1, kappa, L234A L235A, V domains shown, humanized mAb709) VH: EVQLVESGGGLVQPGGSLRLSCAASGFTFSFYTMSWVRQAPGKGLEWVATISGGGRDTYYPDSVKGRFTISRDNAKNSLYLQMNSLRAEDTAVYYCAGQGGNYLFAYWGQGTLVTVSS VL: DIQMTQSPSSLSASVGDRVTITCKASQDVNTVVAWYQQKPGKAPKLLIYWASTRHTGVPSRFSGSGSGTDYTLTISSLQPEDFATYYCQQHYTTPYTFGGGTKVEIKR | – | – | – | – | – | 0.684 | 5.5e-05 | 80300 | 0.47 | 0.99
5 | HumAb709-10 (antibody, human IgG1, kappa, L234A L235A, V domains shown, humanized mAb709) VH: EVQLVESGGGLVQPGGSLRLSCAASGFTFSFYTMSWVRQAPGKGLEWVATISGGGRDTYYPDSVKGRFTISRDNAKNSLYLQMNSLRAEDTAVYYCARQGGNYLFAYWGQGTLVTVSS VL: DIVMTQSPSSLSASVGDRVTITCKASQDVNTVVAWYQQKPGKAPKVLISWASTRHTGVPSRFTGSGSGTDYTLTISSLQPEDFATYYCQQHYTTPYTFGGGTKVEIKR | – | – | – | – | – | 2.04 | 0.000297 | 146000 | 0.29 | 0.8
6 | HumAb709-8 (antibody, human IgG1, kappa, L234A L235A, V domains shown, humanized mAb709; also called HurnAb709-8) VH: EVQLVESGGGLVQPGGSLRLSCAASGFTFSFYTMSWVRQAPGKGLEWVATISGGGRDTYYPDSVKGRFTISRDNAKNSLYLQMNSLRAEDTAVYYCAGQGGNYLFAYWGQGTLVTVSS VL: DIVMTQSPSSLSASVGDRVTITCKASQDVNTVVAWYQQKPGKAPKVLISWASTRHTGVPSRFSGSGSGTDYTLTISSLQPEDFATYYCQQHYTTPYTFGGGTKVEIKR | – | – | – | – | – | 0.368 | 4.69e-05 | 127000 | 0.44 | 1
7 | HumAb709-5 (antibody, human IgG1, kappa, L234A L235A, V domains shown, humanized mAb709) VH: EVQLVESGGGLVQPGGSLRLSCAASGFTFSFYTMSWVRQAPGKGLEWVATISGGGRDTYYPDSVKGRFTISRDNAKNSLYLQMNSLRAEDTAVYYCAGQGGNYLFAYWGQGTLVTVSS VL: DIQMTQSPSSLSASVGDRVTITCKASQDVNTVVAWYQQKPGKAPKLLISWASTRHTGVPSRFSGSGSGTDYTLTISSLQPEDFATYYCQQHYTTPYTFGGGTKVEIKR | – | – | – | – | – | – | – | – | 0.67 | 0.97
8 | HumAb709-12 (antibody, human IgG1, kappa, L234A L235A, V domains shown, humanized mAb709; also called HuntAb709-12) VH: EVQLVESGGGLVQPGGSLRLSCAASGFTFSFYTMSWVRQAPGKRLEWVATISGGGRDTYYPDSVKGRFTISRDNAKNSLYLQMNSLRAEDTAVYYCAGQGGNYLFAYWGQGTLVTVSS VL: DIVMTQSPSSLSASVGDRVTITCKASQDVNTVVAWYQQKPGKAPKVLISWASTRHTGVPSRFTGSGSGTDYTLTISSLQPEDFATYYCQQHYTTPYTFGGGTKVEIKR | – | – | – | – | – | – | – | – | 0.45 | 1.35

Further lines, results first:

Row | Kd [1] [nM] | koff [1] [s⁻¹] | kon [1] [M⁻¹ s⁻¹] | IC50 [2] [nM] | IC50 [3] [nM] | Kd [4] [nM] | koff [4] [s⁻¹] | kon [4] [M⁻¹ s⁻¹] | IC50 [5] [nM] | IC50 [6] [nM] | Binder
9 | 2.37 | 0.000378 | 159000 | 0.97 | 0.51 | – | – | – | – | – | HumAb713-11 (antibody, human IgG1, kappa, L234A L235A, V domains shown, humanized mAb713) VH: EVQLVESGGGLVQPGGSLRLSCAASGFTSSDYGMHWVRQAPGKGLEWVSYISSGSYTIYYADTVKGRFTISRDNAKNSLYLQMNSLRDEDTAVYYCAKRGGSSHVNVMDYWGQGTTVTVSS VL: DIQMTQSPSSLSASVGDRVTITCKASDHINNWLAWYQQKPGKAPKLLISGATSLETGVPSRFSGSGSGTDYTFTISSLQPEDIATYYCQQYWSPPYTFGGGTKVEIKR
10 | – | – | – | – | – | 11 | 0.00215 | 195000 | 1.02 | 1.64 | HumAb709-1 (antibody, human IgG1, kappa, L234A L235A, V domains shown, humanized mAb709) VH: EVQLVESGGGLVQPGGSLRLSCAASGFTFSFYTMSWVRQAPGKGLEWVATISGGGRDTYYPDSVKGRFTISRDNAKNSLYLQMNSLRAEDTAVYYCARQGGNYLFAYWGQGTLVTVSS VL: DIQMTQSPSSLSASVGDRVTITCKASQDVNTVVAWYQQKPGKAPKLLIYWASTRHTGVPSRFSGSGSGTDYTLTISSLQPEDFATYYCQQHYTTPYTFGGGTKVEIKR
11 | – | – | – | – | – | – | – | – | 1.23 | 1.26 | HumAb709-6 (antibody, human IgG1, kappa, L234A L235A, V domains shown, humanized mAb709) VH: EVQLVESGGGLVQPGGSLRLSCAASGFTFSFYTMSWVRQAPGKRLEWVATISGGGRDTYYPDSVKGRFTISRDNAKNSLYLQMNSLRAEDTAVYYCAGQGGNYLFAYWGQGTLVTVSS VL: DIQMTQSPSSLSASVGDRVTITCKASQDVNTVVAWYQQKPGKAPKLLISWASTRHTGVPSRFSGSGSGTDYTLTISSLQPEDFATYYCQQHYTTPYTFGGGTKVEIKR
12 | – | – | – | – | – | – | – | – | 1.04 | 1.76 | HumAb709-9 (antibody, human IgG1, kappa, L234A L235A, V domains shown, humanized mAb709) VH: EVQLVESGGGLVQPGGSLRLSCAASGFTFSFYTMSWVRQAPGKRLEWVATISGGGRDTYYPDSVKGRFTISRDNAKNSLYLQMNSLRAEDTAVYYCAGQGGNYLFAYWGQGTLVTVSS VL: DIVMTQSPSSLSASVGDRVTITCKASQDVNTVVAWYQQKPGKAPKVLISWASTRHTGVPSRFSGSGSGTDYTLTISSLQPEDFATYYCQQHYTTPYTFGGGTKVEIKR
13 | – | – | – | – | – | – | – | – | 0.55 | 0.92 | HumAb709-11 (antibody, human IgG1, kappa, L234A L235A, V domains shown, humanized mAb709) VH: EVQLVESGGGLVQPGGSLRLSCAASGFTFSFYTMSWVRQAPGKGLEWVATISGGGRDTYYPDSVKGRFTISRDNAKNSLYLQMNSLRAEDTAVYYCAGQGGNYLFAYWGQGTLVTVSS VL: DIVMTQSPSSLSASVGDRVTITCKASQDVNTVVAWYQQKPGKAPKVLISWASTRHTGVPSRFTGSGSGTDYTLTISSLQPEDFATYYCQQHYTTPYTFGGGTKVEIKR
14 | – | – | – | – | – | – | – | – | 0.5 | 0.78 | HumAb709-13 (antibody, human IgG1, kappa, L234A L235A, V domains shown, humanized mAb709) VH: EVQLVESGGGLVQPGGSLRLSCAASGFTFSFYTMSWVRQAPGKGLEWVATISGGGRDTYYPDSVKGRFTISRDNAKNSLYLQMNSLRAEDTAVYYCARQGGNYLFAYWGQGTLVTVSS VL: DIVMTQSPSSLSASVGDRVTITCKASQDVNTVVAWYQQKPGKSLKVLISWASTRHTGVPSRFTGSGSGTDYTLTISSLQPEDFATYYCQQHYTTPYTFGGGTKVEIKR
15 | – | – | – | – | – | – | – | – | 0.51 | 0.92 | HumAb709-14 (antibody, human IgG1, kappa, L234A L235A, V domains shown, humanized mAb709) VH: EVQLVESGGGLVQPGGSLRLSCAASGFTFSFYTMSWVRQAPGKGLEWVATISGGGRDTYYPDSVKGRFTISRDNAKNSLYLQMNSLRAEDTAVYYCAGQGGNYLFAYWGQGTLVTVSS VL: DIVMTQSPSSLSASVGDRVTITCKASQDVNTVVAWYQQKPGKSLKVLISWASTRHTGVPSRFTGSGSGTDYTLTISSLQPEDFATYYCQQHYTTPYTFGGGTKVEIKR
16 | – | – | – | – | – | – | – | – | 0.9 | 1.21 | HumAb709-15 (antibody, human IgG1, kappa, L234A L235A, V domains shown, humanized mAb709) VH: EVQLVESGGGLVQPGGSLRLSCAASGFTFSFYTMSWVRQAPGKRLEWVATISGGGRDTYYPDSVKGRFTISRDNAKNSLYLQMNSLRAEDTAVYYCAGQGGNYLFAYWGQGTLVTVSS VL: DIVMTQSPSSLSASVGDRVTITCKASQDVNTVVAWYQQKPGKSLKVLISWASTRHTGVPSRFTGSGSGTDYTLTISSLQPEDFATYYCQQHYTTPYTFGGGTKVEIKR
